The source of these data is paper PMC9398005 (2021).

Common to all, as to assay: ITC
Experiment [1] addresses mouse Rbpj (53-474) K195E (mouse, UniProt P31266 53-474, K195E).
For another experiment, the target named is mouse Rbpj (53-474) WT (mouse, UniProt P31266 53-474).
The target in experiment [2] is Drosophila Su(H) (98-523) K132M (Drosophila, UniProt P28159 98-523, K132M | R155T).
For experiment [3], the target named is Drosophila Su(H) (98-523) E137V (Drosophila, UniProt P28159 98-523, E137V | R155T).
Chain of Drosophila Su(H) (98-523) E137V (P28159 98-523 E137V/R155T/N281G): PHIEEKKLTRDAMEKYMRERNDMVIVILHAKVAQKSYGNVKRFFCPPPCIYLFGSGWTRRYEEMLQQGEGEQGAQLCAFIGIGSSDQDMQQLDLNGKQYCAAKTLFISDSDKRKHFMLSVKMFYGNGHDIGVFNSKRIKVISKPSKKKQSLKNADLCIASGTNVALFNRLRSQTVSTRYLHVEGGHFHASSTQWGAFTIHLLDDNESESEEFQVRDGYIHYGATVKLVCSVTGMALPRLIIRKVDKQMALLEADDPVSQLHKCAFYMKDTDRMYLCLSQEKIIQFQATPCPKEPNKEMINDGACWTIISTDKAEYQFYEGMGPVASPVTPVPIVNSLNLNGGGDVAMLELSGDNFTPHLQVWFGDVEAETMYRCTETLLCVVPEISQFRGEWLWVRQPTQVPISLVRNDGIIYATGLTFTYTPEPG

Chain of mouse Rbpj (53-474) WT (P31266 53-474): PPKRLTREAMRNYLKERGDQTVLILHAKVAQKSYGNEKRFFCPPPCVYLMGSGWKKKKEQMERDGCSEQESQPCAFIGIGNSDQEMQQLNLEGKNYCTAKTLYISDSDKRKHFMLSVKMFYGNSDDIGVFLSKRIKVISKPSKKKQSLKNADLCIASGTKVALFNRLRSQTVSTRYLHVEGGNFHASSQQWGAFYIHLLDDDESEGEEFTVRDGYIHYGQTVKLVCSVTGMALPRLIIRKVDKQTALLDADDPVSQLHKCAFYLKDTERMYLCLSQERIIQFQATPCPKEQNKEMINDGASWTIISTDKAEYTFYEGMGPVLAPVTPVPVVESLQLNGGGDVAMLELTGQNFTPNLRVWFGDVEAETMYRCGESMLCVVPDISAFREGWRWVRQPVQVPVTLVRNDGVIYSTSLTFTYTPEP
Chain of Drosophila Su(H) (98-523) K132M (P28159 98-523 K132M/R155T/N281G): as the sequence (P28159 98-523 E137V/R155T/N281G) above, with K35M, V40E counted along it
Chain of mouse Rbpj (53-474) K195E (P31266 53-474 K195E): as the sequence (P31266 53-474) above, with K143E counted along it

In turn, VLLSRKRRRQHGQLWFPEGFKVSEASKK [Notch1 RAM peptide (human Notch1 residues 1754-1781)] had a Kd in experiment [1] of 22 nM.

B1: SHARP residues 2776-2833 (domain or fragment)
chain: RASANENSRFHPGSMPVIDDRPADAGSGAGLRVNTSEGVVLLSYSGQKTEGPQRISAK
For the molecule B1, the Kd with mouse Rbpj (53-474) WT stood at 4 nM. As for VLSTQRKRAHGVTWFPEGFRAPAAVMSR [Drosophila Notch RAM peptide (residues 1763-1790)], the Kd in experiment [2] amounted to 107 nM; in experiment [3] it was 166 nM.
